{
  "source": "patent US5149780A",
  "about": "“Peptides and antibodies that inhibit integrin-ligand binding” (The Scripps Research Institute, priority 1988, dated 1992)",
  "key": {"alpha subunit (GPIIb)": {"biological_target": "T1, alpha subunit (GPIIb) (Homo sapiens, UniProt P05106+P08514)", "T1 construct": "The radiolabeled peptide was then added to 6×10^8 cells/ml stimulated or nonstimulated platelets; endogenous in cells; host or cells: human platelets (thrombin-stimulated), gel-filtered from fresh blood", "test": "Chemical crosslinking of 125I-Fn-7 to platelets with BS3, SDS-PAGE and autoradiography", "format": "binding", "settings": "thrombin-stimulated platelets, 20 μM peptide, 45 min at 22° C., BS3 0.2 mM"}, "beta subunit (GPIIIa)": {"biological_target": "T2, beta subunit (GPIIIa) (Homo sapiens, UniProt P05106+P08514)", "T2 construct": "endogenous in cells; host or cells: human platelets (thrombin-stimulated or nonstimulated), gel-filtered from fresh blood", "test": "Chemical crosslinking of 125I-Fn-7 to platelets with BS3, SDS-PAGE and autoradiography", "format": "binding", "settings": "thrombin-stimulated platelets, 20 μM peptide, 45 min at 22° C., BS3 0.2 mM", "method": "FIG. 2 illustrates the results of the crosslinking of an RGD peptide to discrete sites in the beta subunit (GPIIIa) of an Integrin adhesion receptor. The ^125 I-labeled RGD peptide, Fn-7 (20 μM), was bound to platelet (6×10^8 /ml) for 45 min at 22° C., and crosslinked with BS^3 (0.2 mM). The fragmentation patterns after proteolysis were analyzed by SDS-PAGE [Laemmli, Nature. 227:680 (1970)] and autoradiography. […] Lanes 2-7, GPIIIa:Fn-7 bands were excised from gels, subjected to proteolysis and then analyzed by SDS-PAGE (15% gels, reducing conditions). For lanes 2-5, GPIIIA:Fn-7 bands were excised and digestions with V-8 protease were performed within the gel slices as described in Cleveland et al., J. Biol. Chem. 252:1102 (1977).\nPlatelets were isolated from fresh human blood collected into acid/citrate/dextrose by differential centrifugation followed by gel filtration on Sepharose 2B in divalent ion-free Tyrode's buffer, pH 7.3, containing 0.1% bovine serum albumin. See, Marguerie et al., J. Biol. Chem. 225:154-161 (1980). […]\nThe cell-bound ligand was recovered by centrifugation through 20% sucrose, and the cells were extracted in PBS containing 1% Nonidet P40 and 10 mM N-ethylmaleimide (Sigma). […] The cross-linked samples were analyzed by electrophoresis (SDS-PAGE) on polyacrylamide vertical slab gels in the buffer system of Laemmli, Nature, […] (1970). […]"}},
  "data": [
    {"sequence": "KYGRRGDS [Fn-7, RGD-peptide with a lysine to facilitate crosslinking and a tyrosine for radioiodination]", "values": [
      {"measurement": "crosslinking of 125I-Fn-7 to the alpha subunit (GPIIb)", "setting": "alpha subunit (GPIIb)", "value": "more minor crosslinking"},
      {"measurement": "crosslinking of 125I-Fn-7 to the beta subunit (GPIIIa)", "setting": "beta subunit (GPIIIa)", "value": "predominance"}
    ]}
  ]
}
